From patent US5833943, “Minimum recognition unit of a pem mucin tandem repeat specific monoclonal antibody” (Cancer Therapeutics Limited, dated 1998)
No end group written: not given here.

Biological target: mucin molecule associated with epithelial tumours (Homo sapiens (Human), UniProt P15941)
Experiment: synthetic CDR peptides of NM-2 VH; method not told at this place

binding result: binds
B1: peptide REPPTRTFAYWG (peptide)
peptide: REPPTRTFAYWG
modifications: also: I125 label, position not given here
